Laboratory results as given in the DeepSol protein solubility set.

assay: soluble on expression in E. coli; label from the status in PepcDB or PDB records

| Sequence | soluble on expression in E. coli |
| --- | --- |
| MQKESQTYKIAPAERLASVSEYYFSKKLKEVAQMNAEGKDVISLGIGSPDMPPSKVTIETLCNNAHDPNGHGYQPYVGIPELRKGFAAWYQRWYGVELNPNTEIQPLIGSKEGILHVTLAFVNPGEQVLVPNPGYPTYTSLSKILGAEVISYDLKEEDGWMPDFEALEKMDLNRVKLMWTNYPNMPTGANATPELYERLVDFARRKNIVIVNDNPYSFILNEKPISILSVPGAKECCIEFNSMSKSHNMPGWRIGMLASNAEFVQWILKVKSNIDSGMFRAMQLAAATALEAEADWYEGNNHNYRGRRHLAGEIMKTLGCTYDENQVGMFLWGKIPASCKDVEELTEKVLHQARVFITPGFIFGSNGARFIRISLCCKDAKLAEALERIKKLS | not soluble |
| MQKIDEKLQLMNTIAKIYRGSIKEFNNRLGKLMNLSYLDFSILKATSEEPRSMVYLANRYFVTQSAITAAVDKLEAKGLVRRIRDSKDRRIVIVEITPKGRQVLLEANEVLRNLVNEMLSDVENVEELLEGLNKILSRIGSSKD | soluble |
| MQKVRLIVSGRVQGVGFRYATHTLALDIGDIYGRVWNNNDGTVEILAQSKDSDKIATFIQEVRKGPSKWAKVTYVDVTMANFEDFQDFQIGK | not soluble |
| MQKWIGIMGIIFILTGCKMSEAPTNLMEAPANEKWINELKEQIDKDLPVNYRLLTPMSNKDKQMIWSMDFKQDNKKEAVIFYKLPNADHSVYLAVYEKNGNGWKTKSTHKFNGGDVDIVEVGDFTGNGKRELLIGISVDRESLKHVMYVFSEENEDMREIYNRNYTKLFIDDLNKNGLKDLSLVTYEKDEKLIVEFIEQFKTLSEASFDPFINSIQRIQMGRISKSLKAIVIDAGVGAHSGITYVAKFDENHYEVLPIDGKEDLFNEYVVESKDVNEDGIIEFVRTVRPKGWEDKPHGDSPLFERYIQWSESGIKPIEERYIDIEKGYYVKIPKELIGKITISDEQKESNSQKFLETSTNETWLEVHIFKRKEWFGIKGYSAAVKTASHVYAVPKQPHFEKVKAYVKPLADYQQE | not soluble |
| MQLNATFYSGTCPNASAIVRSTIQQALQSDTRIGASLIRLHFHDCFVNGCDASILLDDTGSIQSEKNAGPNVNSARGFNVVDNIKTALENACPGVVSCSDVLALASEASVSLAGGPSWTVLLGRRDSLTANLAGANSSIPSPIESLSNITFKFSAVGLNTNDLVALSGAHTFGRARCGVFNNRLFNFSGTGNPDPTLNSTLLSTLQQLCPQNGSASTITNLDLSTPDAFDNNYFANLQSNDGLLQSDQELFSTTGSSTIAIVTSFASNQTLFFQAFAQSMINMGNISPLTGSNGEIRLDCKKVNGS | soluble |
| MQLNETAVGEKVRISELKIENAMLKRRLLALGCDEGCDICIKQKGLFGGPCTFETKGQYISIRQCDACAIMVERRLEHHHHHH | not soluble |
| MQLVREKEFVNQYHYDARNLEWEKENGTPETNFEVTFQLIDKDEQQKETVIVSVLQFVIVKEEFVISGVISQMVRILDRLVDKPSEFTQEEVESLAAPLLDMVKRLTYEVTEIALDRPGIHLEFKN | not soluble |
| MQNEKLDHESVTQAMQPKDTPELRALYKSFEEESIIPLWTQLGDLMPIHPKSKAVPHVWKWSTLLRLARKSGELVPVGRGGERRALGLANPGLGGNAYISPTMWAGIQYLGPRETAPEHRHSQNAFRFVVEGEGVWTVVNGDPVRMSRGDLLLTPGWCFHGHMNDTDQPMAWIDGLDIPFSQQMDVGFFEFGSDRVTDYATPNFSRGERLWCHPGLRPLSGLQNTVASPIGAYRWEFTDRALTEQLLLEDEGQPATVAPGHAAIRYVNPTTGGDVMPTLRCEFHRLRAGTETATRNEVGSTVFQVFEGAGAVVMNGETTKLEKGDMFVVPSWVPWSLQAETQFDLFRFSDAPIMEALSFMRTKIEGQK | soluble |
| MQNLRRAVFAGLVAGTLSEGAAATAGDGGFVEDSELQFLARTYYFNRDYRDSPNNAGRNRFKPRSERNGYREEATQGLRLQFASGYTPGSLGFGLDAHAMLGLQLDSGGGRTGTGNLPVGADGHPDHRYGKVGGALRLRHGETRLKYGQTTTSAPVFAASSNRTLAGMAYGLLLEDRSFDGLLLEGGRFTAASGPGESKVRGDISTVYGRLGAYPVRLDAVGFLGGQWQATERLQLSLYASRFDDIWQQAYFGASHRQPLGGERALRVDLDAYRTRDSGQSRFGRIDTLTSSLALGYEHGPQRITLAYQRVHGEQPFDYMAFGDGRSSASMVLANSVGYSDFNGPGERSWQLRYDLDLGALGLPGLSLHALHARGRAGASASSAAESIYAGLYGRDGRHRENDLGFAYRVKAGPLAGLALRASQAWHRGNASYLDGDIDETRLVVDYSRSIW | not soluble |
| MQNRKFLTHHEINLLLQSVKQKSCSSRDVCMILLAYFHGLRVSELLSLQLSDLELTTEKIYIQRIKNGFSTVHPLQKEEVIAITNWLNERNSLNVKHFNDNPWLFVSRTGKPLSRQRFYNI | not soluble |
| MQNSALKAWLDSSYLSGANQSWIEQLYEDFLTDPDSVDANWRSTFQQLPGTGVKPDQFHSQTREYFRRLAKDASRYSSTISDPDTNVKQVKVLQLINAYRFRGHQHANLDPLGLWQQDKVADLDPSFHDLTEADFQETFNVGSFASGKETMKLGELLEALKQTYCGPIGAEYMHITSTEEKRWIQQRIESGRATFNSEEKKRFLSELTAAEGLERYLGAKFPGAKRFSLEGGDALIPMLKEMIRHAGNSGTREVVLGMAHRGRLNVLVNVLGKKPQDLFDEFAGKHKEHLGTGDVKYHMGFSSDFQTDGGLVHLALAFNPSHLEIVSPVVIGSVRARLDRLDEPSSNKVLPITIHGDAAVTGQGVVQETLNMSKARGYEVGGTVRIVINNQVGFTTSNPLDARSTPYCTDIGKMVQAPIFHVNADDPEAVAFVTRLALDFRNTFKRDVFIDLVCYRRHGHNEADEPSATQPLMYQKIKKHPTPRKIYADKLEQEKVATLEDATEMVNLYRDALDAGDCVVAEWRPMNMHSFTWSPYLNHEWDEEYPNKVEMKRLQELAKRISTVPEAVEMQSRVAKIYADRQAMAAGEKLFDWGGAENLAYATLVDEGIPVRLSGEDSGRGTFFHRHAVIHNQSNGSTYTPLQHIHNGQGAFRVWDSVLSEEAVLAFEYGYATAEPRTLTIWEAQFGDFANGAQVVIDQFISSGEQKWGRMCGLVMLLPHGYEGQGPEHSSARLERYLQLCAEQNMQVCVPSTPAQVYHMLRRQALRGMRRPLVVMSPKSLLRHPLAVSSLEELANGTFLPAIGEIDELDPKGVKRVVMCSGKVYYDLLEQRRKNNQHDVAIVRIEQLYPFPHKAMQEVLQQFAHVKDFVWCQEEPLNQGAWYCSQHHFREVIPFGASLRYAGRPASASPAVGYMSVHQKQQQDLVNDALNVE | soluble |
| MQNTIIQKAVNKDLNSILEITKDALNAMKTMNFHQWDENYPNEIVFQEDIQAQELYVFKENDEILGFICINEKFKPEFYKQVIFNKNYDDKAFYLHRLAVKQNAKGKGVAQKLLNFCENFALENHKASLRADTHSKNFPMNSLFKKLDFNFCGNFDIPNYQDPFLAYEKILNQKAF | not soluble |
| MQQIFFKDPILGEVLFDQQTKWMYELVETEAFRRLRNIKQLGINFHFYPGGVHT | not soluble |
| MQQQETFRHILSVLVQDVDGIISRVSAMFTRRSFSLVSFVSGKTEMHGINRITIVVDASTQDIEQITKQLNKLIPVLKVVRLDEDVTVARALMLVKVSADASNRPQVVDAAKIFRAHVVDVAPDSVVIEATGNKGKLRALLDVLEPFGIRELISSGQIALNRGSKTMAPQSSRS | not soluble |
| MQQQKTVQPEAKQKVEVGVLAIRGHLYAEQRWQPTIDWLNQQISDVHFELHPLNLDEMGEAVKFQTMDFILTNPGQAVRLGRQYALSWMATLTGRAPQNSNYSIGSALVVRANSPYQTLKDVSGFPVAAVSEKAFGGYLTLRYQIVEMGLDPNDFFADVRYLGFPIDANLYQLRDGNVEAAVVPACLLEQMQNEGLLQHGDFRVLNQQPNEHSSCAVSTPLYPNWSFAKTERGSSLLAKKIAQVLLAMPPEHP | not soluble |
